Changes are numbered by the printed parent chain.
Key:
Conditions in all cases: protein: recombinant; tags: N-terminal 6xHis (pET-28a); chain copies: 2; label: none (GelRed stain)
OhrR C121S = target: T1, OhrR C121S (Azorhizobium caulinodans ORS571, UniProt A8IEZ4 1-144, C121S); experiment: EMSA; reducing; 50 mM Tris-HCl pH 8.3, 0.25 M KCl, 2.5 mM DTT, 5 mM MgCl2, 0.05 ug/mL poly(dI-dC), 2.5 mM EDTA, 1% glycerol; 20 nM DNA, 20 uL, 20 min, room temperature; 6% native PAGE in 0.5x TBE
T1 sequence: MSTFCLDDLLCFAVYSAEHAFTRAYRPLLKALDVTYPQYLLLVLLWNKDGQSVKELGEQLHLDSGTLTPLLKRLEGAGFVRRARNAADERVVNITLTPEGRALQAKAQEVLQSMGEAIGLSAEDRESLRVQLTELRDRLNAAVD

OhrR C11S = target: T2, OhrR C11S (Azorhizobium caulinodans ORS571, UniProt A8IEZ4 1-144, C11S); experiment: as above
T2 sequence: T1 sequence with C11S, S121C

OhrR C11S C121S = target: T3, OhrR C11S C121S (Azorhizobium caulinodans ORS571, UniProt A8IEZ4 1-144, C11S;C121S); experiment: EMSA; CuOOH; binding not affected; 50 mM Tris-HCl pH 8.3, 0.25 M KCl, 2.5 mM DTT, 5 mM MgCl2, 0.05 ug/mL poly(dI-dC), 2.5 mM EDTA, 1% glycerol; 20 nM DNA, 20 uL, 20 min, room temperature; 6% native PAGE in 0.5x TBE
T3 sequence: T1 sequence with C11S

Measured: binding result

B1: ohr promoter probe (181 bp) (dsDNA)
DNA 1: CAAAGGGTTAGTTTTCCGTTGCGGAAGGTTGGGTGATGTTGACGGTGGTCTGCAAAATAAGTTTGACACAATCAAATTGTGTGCTACTTAAATGGCCATGGAAGCGGCTTGGCCGTTTCTCATCGATTTCTCAAGGCACGAGGATCAAGCGATGTCCGTCGATGTGAAGTACACCACCAAG
DNA 2: CTTGGTGGTGTACTTCACATCGACGGACATCGCTTGATCCTCGTGCCTTGAGAAATCGATGAGAAACGGCCAAGCCGCTTCCATGGCCATTTAAGTAGCACACAATTTGATTGTGTCAAACTTATTTTGCAGACCACCGTCAACATCACCCAACCTTCCGCAACGGAAAACTAACCCTTTG
binds: OhrR C121S | OhrR C11S | OhrR C11S C121S

From publication PMC7141136, “Ohr and OhrR Are Critical for Organic Peroxide Resistance and Symbiosis in Azorhizobium caulinodans ORS571”
